Values of other authors in article PMC7602216.

Target: UBA5 UIS (Homo sapiens) (UniProt Q9GZZ9)
Experiment: ITC

Kd: 8 µM
Substance: UFM1 (from UniProt P61960)
